Several values for one entry are separate records, joined by “and”; a condition that tells them apart may be missing. Identical values can stand only once.
B1: Pih1p 1–284 fragment (domain or fragment, Saccharomyces cerevisiae, UniProt P38768 1-284, looked up)
chain: MADFLLRPIKQRHRNEDKYVSVDAADGSVSKIEPIADFVIKTKLLSANGPEKLQDGRKVFINVCHSPLVPKPEVDFNARIVFPLIIQNEWEIPIITSCYRMDHDKKGQECYVWDCCINSDCSRWICDDIQLREILVEWCLESCEIRDSVVLCRDRIAFPKMKKKGAELPALEVLNDELHQDYKAKMHKIIEEEAGDPMSILRGRNDDGDDNNDPDDGTLPPLFPIENKISGAKIEEIDKNEIAHRNLKQAPAPAPAPHEQQEDVPEYEVKMKRFKGAAYKLRIL
B2: DII-truncated Rvb2p (deleting residues 134–234) (natural protein, Saccharomyces cerevisiae, UniProt Q12464 1-471, looked up)
chain: MSIQTSDPNETSDLKSLSLIAAHSHITGLGLDENLQPRPTSEGMVGQLQARRAAGVILKMVQNGTIAGRAVLVAGPPSTGKTALAMGVSQSLGKDVPFTAIAGSEIFSLELSKTEALTQAFRKSIGIKIKEETVVHTVSLHEIDVINSRTQGFLALFTGDTGEIRSEVRDQINTKVAEWKEEGKAEIVPGVLFIDEVHMLDIECFSFINRALEDEFAPIVMMATNRGVSKTRGTNYKSPHGLPLDLLDRSIIITTKSYNEQEIKTILSIRAQEEEVELSSDALDLLTKTGVETSLRYSSNLISVAQQIAMKRKNNTVEVEDVKRAYLLFLDSARSVKYVQENESQYIDDQGNVQISIAKSADPDAMDTTE
B3: Rvb1/2p complex (tag-free) (complex, Saccharomyces cerevisiae)
chain 1: MVAISEVKENPGVNSSNSGAVTRTAAHTHIKGLGLDESGVAKRVEGGFVGQIEAREACGVIVDLIKAKKMSGRAILLAGGPSTGKTALALAISQELGPKVPFCPLVGSELYSVEVKKTETLMENFRRAIGLRIKETKEVYEGEVTELTPEDAENPLGGYGKTISHVIVGLKSAKGTKTLRLDPTIYESIQREKVSIGDVIYIEANTGAVKRVGRSDAYATEFDLETEEYVPLPKGEVHKKKEIVQDVTLHDLDVANARPQGGQDVISMMGQLLKPKKTEITEKLRQEVNKVVAKYIDQGVAELIPGVLFIDEVNMLDIEIFTYLNKALESNIAPVVVLASNRGMTTVRGTEDVISPHGVPPDLIDRLLIVRTLPYDKDEIRTIIERRATVERLQVESSALDLLATMGTETSLRYALQLLAPCGILAQTSNRKEIVVNDVNEAKLLFLDAKRSTKILETSANYL
chain 2: MSIQTSDPNETSDLKSLSLIAAHSHITGLGLDENLQPRPTSEGMVGQLQARRAAGVILKMVQNGTIAGRAVLVAGPPSTGKTALAMGVSQSLGKDVPFTAIAGSEIFSLELSKTEALTQAFRKSIGIKIKEETELIEGEVVEIQIDRSITGGHKQGKLTIKTTDMETIYELGNKMIDGLTKEKVLAGDVISIDKASGKITKLGRSFARSRDYDAMGADTRFVQCPEGELQKRKTVVHTVSLHEIDVINSRTQGFLALFTGDTGEIRSEVRDQINTKVAEWKEEGKAEIVPGVLFIDEVHMLDIECFSFINRALEDEFAPIVMMATNRGVSKTRGTNYKSPHGLPLDLLDRSIIITTKSYNEQEIKTILSIRAQEEEVELSSDALDLLTKTGVETSLRYSSNLISVAQQIAMKRKNNTVEVEDVKRAYLLFLDSARSVKYVQENESQYIDDQGNVQISIAKSADPDAMDTTE
B4: Pih1p-Tah1p complex (His-tagged Pih1p, non-tagged Tah1p) (complex, Saccharomyces cerevisiae)
chain 1: MADFLLRPIKQRHRNEDKYVSVDAADGSVSKIEPIADFVIKTKLLSANGPEKLQDGRKVFINVCHSPLVPKPEVDFNARIVFPLIIQNEWEIPIITSCYRMDHDKKGQECYVWDCCINSDCSRWICDDIQLREILVEWCLESCEIRDSVVLCRDRIAFPKMKKKGAELPALEVLNDELHQDYKAKMHKIIEEEAGDPMSILRGRNDDGDDNNDPDDGTLPPLFPIENKISGAKIEEIDKNEIAHRNLKQAPAPAPAPHEQQEDVPEYEVKMKRFKGAAYKLRILIENKAPNSKPDRFSPSYNFAENILYINGKLSIPLPRDIVVNAADIKIFHIRKERTLYIYI
chain 2: MSQFEKQKEQGNSLFKQGLYREAVHCYDQLITAQPQNPVGYSNKAMALIKLGEYTQAIQMCQQGLRYTSTAEHVAIRSKLQYRLELAQGAVGSVQIPVVEVDELPEGYDRS
B5: Pih1p (His-tagged) (natural protein, Saccharomyces cerevisiae, UniProt P38768 1-344, looked up)
chain: B4 chain 1
B6: Nop58p_447 (truncated Nop58p, residues 1–447) (domain or fragment, Saccharomyces cerevisiae, UniProt Q12499 1-447, looked up)
chain: MAYVLTETSAGYALLKASDKKIYKSSSLIQDLDSSDKVLKEFKIAAFSKFNSAANALEEANSIIEGKVSSQLEKLLEEIKKDKKSTLIVSETKLANAINKLGLNFNVVSDAVTLDIYRAIKEYLPELLPGMSDNDLSKMSLGLAHSIGRHKLKFSADKVDVMIIQAIALLDDLDKELNTYAMRCKEWYGWHFPELAKIVTDSVAYARIILTMGIRSKASETDLSEILPEEIEERVKTAAEVSMGTEITQTDLDNINALAEQIVEFAAYREQLSNYLSARMKAIAPNLTQLVGELVGARLIAHSGSLISLAKSPASTIQILGAEKALFRALKTKHDTPKYGLLYHASLVGQATGKNKGKIARVLAAKAAVSLRYDALAEDRDDSGDIGLESRAKVENRLSQLEGRDLRTTPKVVREAKKVEMTEARAYNADADTAKAASDSESDSDDE

What was measured:
[1] = target: B3; test: AUC
Rvb1p (non-tagged) [2] = target: T1, Rvb1p (non-tagged) (Saccharomyces cerevisiae, UniProt Q03940 1-463); test: pull-down
AUC = target: the molecule itself; test: AUC
[3] = target: B3; test: ITC
[4] = target: B3; test: label-free quantitative mass spectrometry
Rvb2p (non-tagged) = Rvb2p (non-tagged) (Saccharomyces cerevisiae, UniProt Q12464 1-471); test: pull-down
Rvb1p (non-tagged) [5] = target: T1, Rvb1p (non-tagged); test: cross-linking
[6] = target: B6; test: cross-linking
[7] = target: ScR2TP complex (Rvb1p, Rvb2p, His-Pih1p, Tah1p) (Saccharomyces cerevisiae, UniProt Q03940 1-463; Q12464 1-471; P38768 1-344; P25638 1-111); test: AUC

B1
binding result [1]: binds

B2
binding result (Rvb1p (non-tagged) [2]): binds

B3
binding result (AUC): binds

B4
KD of the first of two serial sites (KD^1), apparent [3]: 155 nM | KD of the second of two serial sites (KD^2), apparent [3]: 1200 nM | stoichiometry N [4]: 1.6 Pih1p per 3 Rvb1p and 3 Rvb2p and 0.5 Tah1p per 3 Rvb1p | binding result (Rvb2p (non-tagged)): binds

B5
binding result (Rvb1p (non-tagged) [5]): binds | binding result [6]: binds

B6
binding result [7]: binds

Reference: PMC6625358 (Structure (London, England : 1993), 2017)
